For this assay, the target named is HA2融合ペプチドFGAIAG (Influenza A virus (A/VN/1194/04)). In words: Pepscan peptide mapping, linear and cyclised peptides of HA A/VN/1194/04.

B1: FI6変異体2 (antibody, V domains shown)
VH: QVQLVQSGGGVVQPGRSLRLSCVASGFTFSTYAMHWVRQAPGRGLEWVAVISYDGNYKYYADSVKGRFSISRDNSNNTLHLEMNTLRTEDTALYYCAKDSQLRSLLYFEWLSQGYFDPWGQGTLVTVTS
VL: DIQMTQSPDSLAVSLGARATINCKSSQSVTFNYKNYLAWYQQKPGQPPKVLIYWASARESGVPDRFSGSGSGTDFTLTISSLQAEDVAVYYCQQHYRTPPTFGQGTKVEIK
With B1, the binding result was “binds”.
